System: MS2 coat protein
Test: apparent KD of MS2 coat protein; designed switch direction (-1 OFF switch, 1 ON switch): -1; higher = weaker reporter binding
How it was run: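 Three titration conditions were used: no input, 200 uM small-molecule ligand, and an oligonucleotide input. In each, SNAP-549-labelled MS2 coat protein was raised from 0.7 or 1.5 nM, doubling, to 3 µM over designed RNA switches transcribed on Illumina chips by stalled E. coli RNA polymerase. Curve fits of normalised cluster fluorescence gave values whose per-design median over clusters is the apparent KD.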

[1] = Eterna round: R95, input ligand: microRNA oligo, concentration not stated
[2] = input ligand: microRNA oligo, concentration not stated

CAUGGAUGUGAGCCGCAUUACAUGAGGAUCACCCAUGUCAACAAGCUUUUUGCUUGUCUUACGCGGCGACAUCAGAA [Tiquatge] (puzzle: Sensor v3, turn-off variant 1)
apparent KD of MS2 coat protein (Eterna round: R95, input ligand: FMN 200 uM): 11.7 nM
apparent KD of MS2 coat protein [1]: 8.33 nM
apparent KD of MS2 coat protein (Eterna round: R95, input ligand: none): 10.1 nM

GUAGAGUCAGGAUAUACGAAUAGAUCGAUAGAUCAAUCCAUACAUGAGGAUCACCCAUGUAGAAGGGACUCUAC [Mat - Exclusion 2 - Eli Mod - D15] (Eterna round: R97, puzzle: Exclusion 2)
apparent KD of MS2 coat protein (input ligand: FMN 200 uM): 26.2 nM
apparent KD of MS2 coat protein (input ligand: none): 18.8 nM

UCUGGUCGAGGAUAUACAUGAGGAUCACCCAUGUAGAUCAACCAGCGAUAGCUGGAAUGUAGAAGGCGACCAGA [E3/5-A3] (Eterna round: R97, puzzle: Exclusion 3)
apparent KD of MS2 coat protein (input ligand: FMN 200 uM): 381 nM
apparent KD of MS2 coat protein (input ligand: none): 30.4 nM

UAUAUAUAGUAAGGAUAUGUAAUAAUUUUAUAAACAGAAGGUACUGACAUGAGGAUCACCCAUGUUUUAGUGUGGGCAUGUAGA [JMF's solution 30] (Eterna round: R96, puzzle: Exclusion NG 1)
apparent KD of MS2 coat protein [2]: 73.2 nM

GUCGCUAGAGGAUAUACAAUGGUAUAUGAUCCUAGUGACAUACAUGAGGAUCACCCAUGUAGAAGGCUAGUAUU [Exclusion 2 - 8] (puzzle: Exclusion 2)
apparent KD of MS2 coat protein [1]: 23.7 nM

CCGGAAUAGCAGGAUAUAGGAGUCGAUAGACACCUAGAAGGGCUGACAUGAGGAUCACCCAUGUGUCCUACCGG [Fiskers Ex 6 - 83] (puzzle: Exclusion 6)
apparent KD of MS2 coat protein [1]: 71.5 nM

GCCCAGUUAGGAUAUACAUGUCACGUCCUAACGGUCGAAGGACAUGAGGAUCACCCAUGUAGAAGGGACCGGCA [Onraonbe] (Eterna round: R97, puzzle: Exclusion 2)
apparent KD of MS2 coat protein (input ligand: FMN 200 uM): 17.7 nM
apparent KD of MS2 coat protein (input ligand: none): 21.2 nM

UAAUUUUUAGUAAGGAUAUCGGUCCCAAGGGACAACGAGAAGGUACAUGAGGAUCACCCAUGUUACGAAAGAAU [Mod of Zala 10 - Jieux - Brourd's Mod of Exclusion 4] (Eterna round: R97, puzzle: Brourd's mod of Exclusion 4)
apparent KD of MS2 coat protein (input ligand: FMN 200 uM): 17.6 nM
apparent KD of MS2 coat protein (input ligand: none): 18 nM

UACAUGAGGAUCACCCAUGUUUUGUCGUGUAUGGUAUUUAUCUAGGAUAUCAAAUUAUUUAUUUAUGAGAAGGAGAAUAUUAAU [JMF's solution 9] (Eterna round: R96, puzzle: Exclusion NG 3)
apparent KD of MS2 coat protein (input ligand: FMN 200 uM): 37.9 nM
apparent KD of MS2 coat protein [2]: 26.5 nM
apparent KD of MS2 coat protein (input ligand: none): 44.6 nM

CCAUGAUAAGGAUAUUGAAGGUUCGACAUGAGGAUCACCCAUGUUAUGUUGGAAAAGGGACAAGAAGGUAUGAAUU [salish99_ex5_r4_220] (Eterna round: R97, puzzle: Exclusion 5)
apparent KD of MS2 coat protein (input ligand: FMN 200 uM): 34.7 nM
apparent KD of MS2 coat protein (input ligand: none): 35.1 nM

UUUUUACAUGAGGAUCACCCAUGUGAGGAUAUGAGGGUUAGCUUAAAUGGGCUGACUUUCAGAAGGCACAUGAA [JR_Ex1_Sub059] (Eterna round: R97, puzzle: Exclusion 1)
apparent KD of MS2 coat protein (input ligand: FMN 200 uM): 280 nM
apparent KD of MS2 coat protein (input ligand: none): 128 nM

GCGAUAAACGAGGAUAUCGUAUCGGAAACGAUACGAGAAGGUGUAACAUGAGGAUCACCCAUGUUCCUCAACGC [Mat - Exclusion 6 - Eli Mod - D65] (puzzle: Exclusion 6)
apparent KD of MS2 coat protein [1]: 36.3 nM

UACAUGAGGAUCACCCAUGUUUUGUCGUGUAUGGUAUUUAUCUAGGAUAUCAAGUUAUUUAGUUAUGAGAAGGAGAAUAUUAAU [JMF's solution 35] (Eterna round: R96, puzzle: Exclusion NG 3)
apparent KD of MS2 coat protein (input ligand: FMN 200 uM): 31.5 nM
apparent KD of MS2 coat protein [2]: 31.6 nM
apparent KD of MS2 coat protein (input ligand: none): 40.4 nM

GAUUGACAUGAGGAUCACCCAUGUGAGGAUAUCGGCCGGACCUUGUUAGCUUCCAUCGCGAGAAGGCACAUAGG [Exclusion 1 V32] (puzzle: Exclusion 1)
apparent KD of MS2 coat protein [1]: 25.2 nM

ACAUGAGGAUCACCCAUGUGAAACCAAUGGCUGACUUUGAGCUAGGAUAUUCGUGCAUAUCAAACGAAGAAGGAGCAUUACUGG [Deportation 97 - Jieux - Exclusion NG 3] (Eterna round: R96, puzzle: Exclusion NG 3)
apparent KD of MS2 coat protein (input ligand: FMN 200 uM): 36.9 nM
apparent KD of MS2 coat protein [2]: 31.5 nM
apparent KD of MS2 coat protein (input ligand: none): 34.8 nM

CCCUGACAUGAGGAUCACCCAUGUUAGGAUAUAACAUUUGACACUACAGUGUGAAGUGUUAGAAGGGAUAUGGG [-27.9, -26.2 kcal, A 31%] (Eterna round: R97, puzzle: Exclusion 1)
apparent KD of MS2 coat protein (input ligand: FMN 200 uM): 32.4 nM
apparent KD of MS2 coat protein (input ligand: none): 28.7 nM

CGAGCUGGAGUGAGGAUAUCGUGUUCGAAAGAACGUGAGAAGGCACAUGAGGAUCACCCAUGUGAUUCAGCUCG [Omei Ex4B A4] (Eterna round: R97, puzzle: Brourd's mod of Exclusion 4)
apparent KD of MS2 coat protein (input ligand: FMN 200 uM): 28 nM
apparent KD of MS2 coat protein (input ligand: none): 20.1 nM

AGAUAGUGCAGAGGAUAUCGUAAUAGAAAGAAUCGAGAAGGCUGACAUGAGGAUCACCCAUGUGAUGUCUUGAGACUACAUGGU [Prohibition 34 - Jieux - Exclusion NG 1] (Eterna round: R96, puzzle: Exclusion NG 1)
apparent KD of MS2 coat protein (input ligand: FMN 200 uM): 460 nM
apparent KD of MS2 coat protein [2]: 62.8 nM
apparent KD of MS2 coat protein (input ligand: none): 83.1 nM

UUCCUACAUGAGGAUCACCCAUGUCAGGAUAUCUCCUCACUGCGCUUGCGCAGUGAAUAGAGAAGGGACAGGCU [JL ViennaUCT Aner mod 1] (puzzle: Exclusion 1)
apparent KD of MS2 coat protein [1]: 15.9 nM

From the supplement of paper PMC9170038
